Measured values reported in paper PMC10516938, “Conformational dynamics of cohesin/Scc2 loading complex are regulated by Smc3 acetylation and ATP binding” (Nature Communications, 2023).
Changes are numbered by the printed parent chain. Names and notes keep the numbering of the source.

T1: Smc3 S72C E1155Q (S. cerevisiae, UniProt P47037 1-1230, S72C | E1155Q)
T1 construct: Smc3, S. cerevisiae; also called EQ mutant version of Smc3^S72C; source: S. cerevisiae W303, ectopically expressed, late G1 arrested cells, whole-cell extract
T1 sequence (looked up): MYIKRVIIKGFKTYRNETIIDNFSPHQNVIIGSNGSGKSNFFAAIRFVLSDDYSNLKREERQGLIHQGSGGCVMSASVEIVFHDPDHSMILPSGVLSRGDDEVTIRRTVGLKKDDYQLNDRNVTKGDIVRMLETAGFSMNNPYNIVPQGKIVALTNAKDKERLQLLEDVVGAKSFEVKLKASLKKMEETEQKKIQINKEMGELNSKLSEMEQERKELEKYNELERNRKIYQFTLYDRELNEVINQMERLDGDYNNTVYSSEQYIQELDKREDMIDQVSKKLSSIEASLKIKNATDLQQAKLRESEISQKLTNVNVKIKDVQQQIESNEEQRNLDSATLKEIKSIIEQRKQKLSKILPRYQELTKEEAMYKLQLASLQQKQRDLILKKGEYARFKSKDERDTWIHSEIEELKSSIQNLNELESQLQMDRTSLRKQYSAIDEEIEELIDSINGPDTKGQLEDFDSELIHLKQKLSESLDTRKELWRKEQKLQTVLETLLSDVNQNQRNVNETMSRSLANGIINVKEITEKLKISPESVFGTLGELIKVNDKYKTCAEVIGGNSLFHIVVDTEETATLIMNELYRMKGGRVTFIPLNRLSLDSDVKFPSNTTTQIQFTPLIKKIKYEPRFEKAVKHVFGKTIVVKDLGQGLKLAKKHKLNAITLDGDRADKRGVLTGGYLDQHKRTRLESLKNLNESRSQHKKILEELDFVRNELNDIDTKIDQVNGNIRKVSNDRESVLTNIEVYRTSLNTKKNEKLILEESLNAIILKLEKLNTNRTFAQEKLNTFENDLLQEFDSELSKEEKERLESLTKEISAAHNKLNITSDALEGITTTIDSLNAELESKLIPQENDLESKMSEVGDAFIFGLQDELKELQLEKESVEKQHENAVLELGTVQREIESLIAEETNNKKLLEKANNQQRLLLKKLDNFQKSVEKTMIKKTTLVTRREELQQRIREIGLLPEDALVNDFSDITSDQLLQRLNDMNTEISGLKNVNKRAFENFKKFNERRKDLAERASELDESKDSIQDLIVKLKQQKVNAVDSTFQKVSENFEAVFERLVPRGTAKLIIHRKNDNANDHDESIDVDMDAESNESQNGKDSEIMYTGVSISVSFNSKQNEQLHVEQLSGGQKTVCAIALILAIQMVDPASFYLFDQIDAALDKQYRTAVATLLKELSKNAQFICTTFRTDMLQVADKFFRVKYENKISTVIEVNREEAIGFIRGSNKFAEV

T2: Smc3^QQ S72C (S. cerevisiae, UniProt P47037 1-1230, S72C | K112Q | K113Q)
T2 construct: Smc3, S. cerevisiae; source: S. cerevisiae W303, late G1 arrested cells, whole-cell extract
T2 sequence (looked up): T1 sequence (looked up) with K112Q, K113Q, Q1155E

T3: Smc3^E1155Q Q67C K1004C (S. cerevisiae, UniProt P47037 1-1230, Q67C | K1004C | E1155Q)
T3 construct: Smc3, S. cerevisiae, ATP hydrolysis mutant; source: S. cerevisiae W303, late G1 arrested cells, whole-cell extract
T3 sequence (looked up): T1 sequence (looked up) with Q67C, C72S, K1004C

B1: Scc2 E819C (natural protein, S. cerevisiae, UniProt Q04002 1-1493, looked up)
chain: MSYPGKDKNIPGRIIEALEDLPLSYLVPKDGLAALVNAPMRVSLPFDKTIFTSADDGRDVNINVLGTANSTTSSIKNEAEKERLVFKRPSNFTSSANSVDYVPTNFLEGLSPLAQSVLSTHKGLNDSINIEKKSEIVSRPEAKHKLESVTSNAGNLSFNDNSSNKKTKTSTGVTMTQANLAEQYLNDLKNILDIVGFDQNSAEIGNIEYWLQLPNKKFVLTTNCLTKLQMTIKNITDNPQLSNSIEITWLLRLLDVMVCNIKFSKSSLKMGLDDSMLRYIALLSTIVLFNIFLLGKNDSNLHRESYIMEPVNFLSDLIESLKILTIEYGSLKIEFDTFQEALELLPKYIRNGPFLDDNVTAKLVYIFSDLLMNNDIEATTNIQFQSFWDNVKRISSDILVSLFGSFDQQRGFIIEELLSHIEKLPTKRIQKKLRKVGNQNIYITDFTFTLMSMLENINCYSFCNQMKDIAPENIDLLKNEYKKQEEFLFNIVEHINDTILERFFKNPSALRYVIDNFVQDLLLLISSPQWPVTEKILSSLLKRLLSVYSPSMQVSANIETICLQLIGNIGSTIFDIKCSTRDHEDNNLIKMINYPETLPHFFKSFEECIAYNETIKCRRSATRFLWNLRLGTILILEEYTKDAKEQIITVDNELKKILEQIKDGGLGPELENREADFSTIKLDYFSILHAFELLNLYDPYLKLILSLLAKDKIKLRSTAIKCLSMLASKDKVILSNPMVKETIHRRLNDSSASVKDAILDLVSINSSYFEFYQQINNNYNDDSIMVRKHVLRINEKMYDETNDIVTKVYVIARILMKICDEEDNIIDMARLILLNRWILKVHEVLDQPEKLKEISSSVLLVMSRVAIMNEKCSQLFDLFLNFYLLNKEAHSKEAYDKITHVLTILTDFLVQKIVELNSDDTNEKNSIVDKQNFLNLLAKFADSTVSFLTKDHITALYPYMVSDEKSDFHYYILQVFRCTFEKLANFKQKFLYDLETTLLSRLPKMNVREIDEAMPLIWSVATHRHDTARVAKACSSCLSHLHPYINKANNEEAAIVVDGKLQRLIYLSTGFARFCFPKPSNDKIAFLQEGETLYEHITKCLLVLSKDKITHVIRRVAVKNLTKLCGNHPKLFNSRHVLHLLDKEFQSDQLDIKLVILESLYDLFLLEERKSVRNTGVNSTLSSNSILKKKLLKTNRVEFANDGVCSALATRFLDNILQLCLLRDLKNSLVAIRLLKLILKFGYTNPSHSIPTVIALFASTSQYIRHVAYELLEDLFEKYETLVFSSLSRGVTKAIHYSIHTDEKYYYKHDHFLSLLEKLCGTGKKNGPKFFKVLKRIMQSYLDDITDLTSTNSSVQKSIFVLCTNISNITFVSQYDLVSLLKTIDLTTDRLKEVIMDEIGDNVSSLSVSEEKLSGIILIQLSLQDLGTYLLHLYGLRDDVLLLDIVEESELKNKQLPAKKPDISKFSAQLENIEQYSSNGKLLTYFRKHVKDT
notes: Scc2, S. cerevisiae; source: S. cerevisiae W303, in vivo, whole-cell extract
B2: Scc2 D369C T1175C (natural protein, S. cerevisiae, UniProt Q04002 1-1493, looked up)
chain: B1 chain with D369C, C819E, T1175C
notes: Scc2, S. cerevisiae; source: S. cerevisiae W303, late G1 arrested cells, whole-cell extract

Assays:
Test in all cases: cross-linking; in vivo BMOE cross-link of cysteine pairs in yeast cells arrested in late G1 by non-degradable Sic1(9m); Scc1-PK immunoprecipitated, western blot, band intensities quantified
Conditions in all cases: partners not purified
Smc3 S72C E1155Q = target: T1, Smc3 S72C E1155Q
Smc3^QQ S72C = target: T2, Smc3^QQ S72C
Smc3^E1155Q Q67C K1004C = target: T3, Smc3^E1155Q Q67C K1004C

Binder	fold change of the crosslink against wild-type Smc3 (S72C) (Smc3 S72C E1155Q)	crosslinking efficiency relative to wild type (Smc3^QQ S72C)	double crosslink band relative to that of smc3 S72C K1004C E1155Q with scc2 E819C D369C (Smc3^E1155Q Q67C K1004C)
B1	~2 fold	~10%	
B2			~15%
